Data taken from US20240270821A1, “GIP/GLP1/GCG TRI-RECEPTOR AGONISTS AND USES THEREOF” (priority 2023, published 2024).
Substitutions are numbered along the chain they refer to.

B1: Example 667 (peptide)
chain: YXQGTXTSDXSILLDKKAQXAFIEXLEEGGPSSGAPPPSGEGE
modifications: synthetic construct; SITE 2: note = 2-Aminoisobutyric Acid; SITE 6: note = alpha-methyl-2-fluoro-L-phenylalanine; SITE 10: note = 3-(4-Pyridyl)-L-alanine; SITE 17: note = Lysine is chemically modified through conjugation of the epsilon-amino group of the Lysine side chain with (gamma-Glu)2-CO-(CH2)1
B2: Example 663 (peptide)
chain: B1 chain with X25Y, E27X, E41T
modifications: synthetic construct; SITE 2: note = 2-Aminoisobutyric Acid; SITE 6: note = alpha-methyl-2-fluoro-L-phenylalanine; SITE 10: note = 3-(4-Pyridyl)-L-alanine; SITE 17: note = Lysine is chemically modified through conjugation of the epsilon-amino group of the Lysine side chain with (2-[2-(2-Amino-ethoxy))
B3: Example 640 (peptide)
chain: YXQGTXTSDXSIXLDXKAQXEFIEXLIEGGPSSGAPPPSGS
modifications: non-natural residues; Lys acylated C18 diacid; C-terminal amide; synthetic construct; SITE 2: note = 2-Aminoisobutyric Acid; SITE 6: note = alpha-methyl-2-fluoro-L-phenylalanine; SITE 10: note = 3-(4-Pyridyl)-L-alanine; SITE 13: note = alpha-methyl-leucine; SITE 16: note = L-ornithine; SITE 17: note = Lysine is chemically modified through conjugation of the epsil
B4: Example 642 (peptide)
chain: B3 chain with I27A
modifications: non-natural residues; acylated Lys; C-terminal amide; synthetic construct; SITE 2: note = 2-Aminoisobutyric Acid; SITE 6: note = alpha-methyl-2-fluoro-L-phenylalanine; SITE 10: note = 3-(4-Pyridyl)-L-alanine; SITE 13: note = alpha-methyl-leucine; SITE 16: note = L-ornithine; SITE 17: note = Lysine is chemically modified through conjugation of the epsil
B5: Example 643 (peptide)
chain: B3 chain with I27Q
modifications: non-natural residues, acylated Lys (AEEA-γGlu-C18 diacid), C-terminal amide; synthetic construct; SITE 2: note = 2-Aminoisobutyric Acid; SITE 6: note = alpha-methyl-2-fluoro-L-phenylalanine; SITE 10: note = 3-(4-Pyridyl)-L-alanine; SITE 13: note = alpha-methyl-leucine; SITE 16: note = L-ornithine; SITE 17: note = Lysine is chemically modified through conjugation of the epsil
B6: Example 672 (peptide)
chain: B3 chain with S11X, Q19A, I27L
modifications: synthetic construct; SITE 2: note = 2-Aminoisobutyric Acid; SITE 6: note = alpha-methyl-2-fluoro-L-phenylalanine; SITE 10: note = 3-(4-Pyridyl)-L-alanine; SITE 11: note = alpha-methyl-L-serine; SITE 13: note = alpha-methyl-leucine; SITE 16: note = L-ornithine; SITE 17: note = Lysine is chemically mo
B7: Example 644 (peptide)
chain: B3 chain with A35E
modifications: non-natural residues; lipidated Lys AEEA-γGlu-C18 diacid; C-term amide; synthetic construct; SITE 2: note = 2-Aminoisobutyric Acid; SITE 6: note = alpha-methyl-2-fluoro-L-phenylalanine; SITE 10: note = 3-(4-Pyridyl)-L-alanine; SITE 13: note = alpha-methyl-leucine; SITE 16: note = L-ornithine; SITE 17: note = Lysine is chemically modified through conjugation of the epsil
B8: Example 641 (peptide)
chain: B3 chain with I27L
modifications: Lys acylated AEEA-γGlu-C18 diacid; non-natural residues; C-terminal amide; synthetic construct; SITE 2: note = 2-Aminoisobutyric Acid; SITE 6: note = alpha-methyl-2-fluoro-L-phenylalanine; SITE 10: note = 3-(4-Pyridyl)-L-alanine; SITE 13: note = alpha-methyl-leucine; SITE 16: note = L-ornithine; SITE 17: note = Lysine is chemically modified through conjugation of the epsil
B9: Example 646 (peptide)
chain: B3 chain with I27A
modifications: Aib, αMeF(2F), 4Pal, Orn, Me4Pal, αMeY; K (γGlu)2-C18 diacid; amide; synthetic construct; SITE 2: note = 2-Aminoisobutyric Acid; SITE 6: note = alpha-methyl-2-fluoro-L-phenylalanine; SITE 10: note = 3-(4-Pyridyl)-L-alanine; SITE 13: note = alpha-methyl-leucine; SITE 16: note = L-ornithine; SITE 17: note = Lysine is chemically modified through conjugation of the epsil
B10: Example 693 (peptide)
chain: B3 chain with S11X, Q19A, I27V
modifications: synthetic construct; SITE 2: note = 2-Aminoisobutyric Acid; SITE 6: note = alpha-methyl-2-fluoro-L-phenylalanine; SITE 10: note = 3-(4-Pyridyl)-L-alanine; SITE 11: note = alpha-methyl-L-serine; SITE 13: note = alpha-methyl-leucine; SITE 16: note = L-ornithine; SITE 17: note = Lysine is chemically mo
B11: Example 682 (peptide)
chain: B3 chain with E21X, A35E, S41E
modifications: synthetic construct; SITE 2: note = 2-Aminoisobutyric Acid; SITE 6: note = alpha-methyl-2-fluoro-L-phenylalanine; SITE 10: note = 3-(4-Pyridyl)-L-alanine; SITE 13: note = alpha-methyl-leucine; SITE 16: note = L-ornithine; SITE 17: note = Lysine is chemically modified through conjugation of the epsil
B12: Example 645 (peptide)
chain: B3 chain with I27L, A35E
modifications: non-natural residues; lipidated Lys; C-terminal amide; synthetic construct; SITE 2: note = 2-Aminoisobutyric Acid; SITE 6: note = alpha-methyl-2-fluoro-L-phenylalanine; SITE 10: note = 3-(4-Pyridyl)-L-alanine; SITE 13: note = alpha-methyl-leucine; SITE 16: note = L-ornithine; SITE 17: note = Lysine is chemically modified through conjugation of the epsil
B13: Example 60 (peptide)
chain: YXQGTFTSDFSXXLDKKAQXAFIEYLLAGGPSSGAPPPSEG
modifications: synthetic construct; SITE 2: note = 2-Aminoisobutyric Acid; SITE 12: note = L-ornithine; SITE 13: note = alpha-methyl-leucine; SITE 17: note = Lysine is chemically modified through conjugation of the epsilon-amino group of the Lysine side chain with (2-[2-(2-Amino-ethoxy)-ethoxy]-acetyl)-(gamma-Glu)
B14: Example 61 (peptide)
chain: B13 chain with A28E, G29X
modifications: synthetic construct; SITE 2: note = 2-Aminoisobutyric Acid; SITE 12: note = L-ornithine; SITE 13: note = alpha-methyl-leucine; SITE 17: note = Lysine is chemically modified through conjugation of the epsilon-amino group of the Lysine side chain with (2-[2-(2-Amino-ethoxy)-ethoxy]-acetyl)-(gamma-Glu)
B15: Example 63 (peptide)
chain: B13 chain with A28E, S39G, E40G, G41E
modifications: synthetic construct; SITE 2: note = 2-Aminoisobutyric Acid; SITE 12: note = L-ornithine; SITE 13: note = alpha-methyl-leucine; SITE 17: note = Lysine is chemically modified through conjugation of the epsilon-amino group of the Lysine side chain with (2-[2-(2-Amino-ethoxy)-ethoxy]-acetyl)-(gamma-Glu)
B16: Example 64 (peptide)
chain: YXQGTFTSDFSXXLDKKAQXAFIEYLLEGGPSSGAPPPGGSG
modifications: synthetic construct; SITE 2: note = 2-Aminoisobutyric Acid; SITE 12: note = L-ornithine; SITE 13: note = alpha-methyl-leucine; SITE 17: note = Lysine is chemically modified through conjugation of the epsilon-amino group of the Lysine side chain with (2-[2-(2-Amino-ethoxy)-ethoxy]-acetyl)-(gamma-Glu)
B17: Example 65 (peptide)
chain: B16 chain with G42E
modifications: synthetic construct; SITE 2: note = 2-Aminoisobutyric Acid; SITE 12: note = L-ornithine; SITE 13: note = alpha-methyl-leucine; SITE 17: note = Lysine is chemically modified through conjugation of the epsilon-amino group of the Lysine side chain with (2-[2-(2-Amino-ethoxy)-ethoxy]-acetyl)-(gamma-Glu)

The binders below were run against hGLP-1R (Homo sapiens, UniProt P43220) (assay: cell-based or functional assay).
hGLP-1R, sequence (P43220 24-463): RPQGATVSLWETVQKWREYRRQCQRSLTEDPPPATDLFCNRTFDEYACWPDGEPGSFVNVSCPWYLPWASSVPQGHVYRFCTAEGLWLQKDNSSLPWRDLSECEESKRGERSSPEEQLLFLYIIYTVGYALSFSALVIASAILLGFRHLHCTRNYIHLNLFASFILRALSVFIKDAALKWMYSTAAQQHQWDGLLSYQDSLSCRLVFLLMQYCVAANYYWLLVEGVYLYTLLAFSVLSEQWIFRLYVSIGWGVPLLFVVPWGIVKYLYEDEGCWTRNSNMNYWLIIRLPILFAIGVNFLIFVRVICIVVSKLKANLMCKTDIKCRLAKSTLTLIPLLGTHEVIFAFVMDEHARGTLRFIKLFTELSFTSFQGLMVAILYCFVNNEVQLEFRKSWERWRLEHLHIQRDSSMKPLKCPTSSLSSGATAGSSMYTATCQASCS

| Binder | cAMP Rel EC50 (1% HSA) [nM] | Relative cAMP EC50 [nM] | cAMP Rel EC50 (in the presence of 1% HSA) [nM] | cAMP Rel EC50, nM (in the presence of 1% HSA) [nM] |
| --- | --- | --- | --- | --- |
| B1 | 33 | – | – | – |
| B2 | 79 | – | – | – |
| B3 | – | 0.288 | 27.8 | – |
| B4 | – | 0.474 | 67.1 | – |
| B5 | – | 0.741 | 60.1 | – |
| B6 | 49.4 | – | – | – |
| B7 | – | 0.309 | 34.3 | – |
| B8 | – | 0.489 | 68.3 | – |
| B9 | – | 2.58 | 90.5 | – |
| B10 | 18 | – | – | – |
| B11 | 14 | – | – | – |
| B12 | – | 0.596 | 76.3 | – |
| B13 | – | 1.93 | – | 409 |
| B14 | – | 2.05 | – | 704 |
| B15 | – | 4.78 | – | 348 |
| B16 | – | 4.08 | – | 397 |
| B17 | – | 4.21 | – | 462 |

What follows are binders tested against T1, human GIP receptor (human) (UniProt P48546) (assay: cell-based or functional assay).
T1 sequence (looked up): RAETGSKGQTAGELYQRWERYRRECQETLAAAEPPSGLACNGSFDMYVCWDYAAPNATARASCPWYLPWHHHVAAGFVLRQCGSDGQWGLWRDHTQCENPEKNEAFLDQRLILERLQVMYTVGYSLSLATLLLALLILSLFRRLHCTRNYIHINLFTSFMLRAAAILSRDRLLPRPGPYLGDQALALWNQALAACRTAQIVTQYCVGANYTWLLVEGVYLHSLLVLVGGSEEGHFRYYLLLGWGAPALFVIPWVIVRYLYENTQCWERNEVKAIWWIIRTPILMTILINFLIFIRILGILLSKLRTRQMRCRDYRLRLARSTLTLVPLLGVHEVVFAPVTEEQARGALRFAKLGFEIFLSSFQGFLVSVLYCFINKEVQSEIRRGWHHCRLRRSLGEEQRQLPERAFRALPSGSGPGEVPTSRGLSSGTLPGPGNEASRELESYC

| Binder | cAMP Rel EC50 (1% HSA) [nM] | Relative cAMP EC50 [nM] | cAMP Rel EC50 (in the presence of 1% HSA) [nM] | cAMP Rel EC50, nM (in the presence of 1% HSA) [nM] |
| --- | --- | --- | --- | --- |
| B1 | 1.46 | – | – | – |
| B2 | 10.2 | – | – | – |
| B3 | – | 0.00696 | 0.591 | – |
| B4 | – | 0.00796 | 0.791 | – |
| B5 | – | 0.0223 | 1.61 | – |
| B6 | 1.53 | – | – | – |
| B7 | – | 0.00649 | 0.601 | – |
| B8 | – | 0.00819 | 0.832 | – |
| B9 | – | 0.0336 | 1.09 | – |
| B10 | 1.1 | – | – | – |
| B11 | 0.415 | – | – | – |
| B12 | – | 0.00724 | 0.863 | – |
| B13 | – | 0.135 | – | 33 |
| B14 | – | 0.122 | – | 55.2 |
| B15 | – | 0.255 | – | 40.4 |
| B16 | – | 0.309 | – | 24.9 |
| B17 | – | 0.739 | – | 30.2 |

The binders below were run against human glucagon receptor (human) (UniProt P47871) (assay: cell-based or functional assay).
human glucagon receptor (human), sequence (P47871 26-477): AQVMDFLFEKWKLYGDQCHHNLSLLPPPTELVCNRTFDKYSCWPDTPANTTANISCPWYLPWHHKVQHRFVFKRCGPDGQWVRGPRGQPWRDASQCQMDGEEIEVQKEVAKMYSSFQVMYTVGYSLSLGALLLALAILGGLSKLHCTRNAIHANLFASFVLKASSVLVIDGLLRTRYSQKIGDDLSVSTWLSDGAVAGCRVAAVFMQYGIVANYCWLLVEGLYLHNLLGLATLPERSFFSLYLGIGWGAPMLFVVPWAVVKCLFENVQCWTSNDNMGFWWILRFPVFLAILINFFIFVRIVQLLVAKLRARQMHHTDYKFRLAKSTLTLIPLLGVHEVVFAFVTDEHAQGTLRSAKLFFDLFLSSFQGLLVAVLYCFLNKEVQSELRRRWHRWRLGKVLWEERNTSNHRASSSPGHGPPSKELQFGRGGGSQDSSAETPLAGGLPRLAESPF

| Binder | cAMP Rel EC50 (1% HSA) [nM] | Relative cAMP EC50 [nM] | cAMP Rel EC50 (in the presence of 1% HSA) [nM] | cAMP Rel EC50, nM (in the presence of 1% HSA) [nM] |
| --- | --- | --- | --- | --- |
| B1 | 215 | – | – | – |
| B2 | 226 | – | – | – |
| B3 | – | 9.5 | 730 | – |
| B4 | – | 3.49 | 519 | – |
| B5 | – | 16 | 1170 | – |
| B6 | 162 | – | – | – |
| B7 | – | 5.91 | 626 | – |
| B8 | – | 3.72 | 451 | – |
| B9 | – | 23.1 | 1260 | – |
| B10 | 304 | – | – | – |
| B11 | 127 | – | – | – |
| B12 | – | 3.25 | 398 | – |
| B13 | – | 8.96 | – | 1210 |
| B14 | – | 3.57 | – | 1310 |
| B15 | – | 4.1 | – | 709 |
| B16 | – | 4.94 | – | 626 |
| B17 | – | 6.49 | – | 808 |
